Here are results for one molecule from patent US20110059051, “Molecular Control of Brown Fat Differentiation and Engergy Expenditure” (Dana-Farber Cancer Institute, Inc., published 2011).

The data set has as its target PRDM16 R998Q (Mus musculus, UniProt A2A935 SEQ:1-1275, R998Q). Description: EMSA; R998Q completely loses DNA binding; same buffer as wild type. Conditions: label: 32P end label.

PRDM16 R998Q, sequence (A2A935 other isoform, or with tags, fused parts or gaps R998Q | R998Q R998Q): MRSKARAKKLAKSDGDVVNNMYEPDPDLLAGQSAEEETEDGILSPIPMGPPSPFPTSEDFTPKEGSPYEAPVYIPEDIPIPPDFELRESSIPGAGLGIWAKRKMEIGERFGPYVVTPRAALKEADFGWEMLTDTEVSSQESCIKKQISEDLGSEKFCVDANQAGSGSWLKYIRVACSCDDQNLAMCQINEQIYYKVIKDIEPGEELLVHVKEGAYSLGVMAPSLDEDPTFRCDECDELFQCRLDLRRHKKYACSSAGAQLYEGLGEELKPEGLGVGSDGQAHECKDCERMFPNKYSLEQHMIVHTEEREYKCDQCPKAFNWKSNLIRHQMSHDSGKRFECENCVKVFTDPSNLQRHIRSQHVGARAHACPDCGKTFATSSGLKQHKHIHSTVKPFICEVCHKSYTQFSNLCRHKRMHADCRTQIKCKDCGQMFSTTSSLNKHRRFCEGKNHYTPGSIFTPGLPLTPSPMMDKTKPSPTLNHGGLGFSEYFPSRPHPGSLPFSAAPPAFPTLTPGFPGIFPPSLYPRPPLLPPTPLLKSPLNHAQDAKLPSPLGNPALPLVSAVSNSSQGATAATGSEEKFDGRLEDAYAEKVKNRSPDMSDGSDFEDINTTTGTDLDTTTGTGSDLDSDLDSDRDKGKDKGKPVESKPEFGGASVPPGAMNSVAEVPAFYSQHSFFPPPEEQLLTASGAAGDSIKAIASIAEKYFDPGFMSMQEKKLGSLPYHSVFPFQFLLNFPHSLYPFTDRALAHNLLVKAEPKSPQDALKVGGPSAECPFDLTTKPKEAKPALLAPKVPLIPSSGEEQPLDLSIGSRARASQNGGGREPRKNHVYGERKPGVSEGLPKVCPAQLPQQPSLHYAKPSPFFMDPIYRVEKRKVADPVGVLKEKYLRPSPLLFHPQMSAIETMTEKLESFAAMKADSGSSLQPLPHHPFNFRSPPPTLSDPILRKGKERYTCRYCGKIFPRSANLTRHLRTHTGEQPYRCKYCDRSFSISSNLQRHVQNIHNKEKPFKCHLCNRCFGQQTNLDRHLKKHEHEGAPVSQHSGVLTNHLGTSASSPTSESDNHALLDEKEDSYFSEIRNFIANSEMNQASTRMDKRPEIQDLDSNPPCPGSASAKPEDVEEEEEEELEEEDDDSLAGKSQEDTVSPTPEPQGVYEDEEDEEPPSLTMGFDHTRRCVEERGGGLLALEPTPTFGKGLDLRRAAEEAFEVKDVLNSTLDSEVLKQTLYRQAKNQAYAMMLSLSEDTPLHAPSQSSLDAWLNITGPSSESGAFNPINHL

B1: PRDM16 consensus binding site EMSA probe (dsDNA)
DNA 1: GATCCGACAAGATAAGATAAGGATCTATAAGAAGATGAGGTATG
DNA 2: CATACCTCATCTTCTTATAGATCCTTATCTTATCTTGTCGGATC
Take B1: the binding result is listed as “no binding”.
